From US5981229

Target: PlpA-PhoA fusion protein of strain SPRU98 (Streptococcus pneumoniae; E. coli)

## DsbA (from UniProt P0AEG4) (enzyme)
  alkaline phosphatase activity of SPRU98 whole bacteria (activity units per mg of total protein): 138
